Test system: MCF7 cells
Experiment: Proliferation of MCF7 cells after peptide treatment
Assay type: cell-based
Details: MCF7 cells (FIG. 5)

B1: HB-EGF: peptide mimetic HB-EGF (R&D Systems 259-HE-050) (protein, UniProt Q99075 63-148, looked up)
Heparin-binding EGF-like …: DLQEADLDLLRVTLSSKPQALATPNKEEHGKRKKKGKGLGKKRDPCLRKYKDFCIHGECKYVKELRAPSCICHPGYHGERCHGLSL
In the case of B1, the “proliferation after peptide treatment” value is reported as “does not affect proliferation”.
